Source: patent US20040132130

Tested on: Ac-Ala-Ala-Pro-Thr(Man)-Pro-Val-Ala-Ala-Pro-NH2

Chain of His-Xpress-sOMGnT(L) (chain, as listed by the source): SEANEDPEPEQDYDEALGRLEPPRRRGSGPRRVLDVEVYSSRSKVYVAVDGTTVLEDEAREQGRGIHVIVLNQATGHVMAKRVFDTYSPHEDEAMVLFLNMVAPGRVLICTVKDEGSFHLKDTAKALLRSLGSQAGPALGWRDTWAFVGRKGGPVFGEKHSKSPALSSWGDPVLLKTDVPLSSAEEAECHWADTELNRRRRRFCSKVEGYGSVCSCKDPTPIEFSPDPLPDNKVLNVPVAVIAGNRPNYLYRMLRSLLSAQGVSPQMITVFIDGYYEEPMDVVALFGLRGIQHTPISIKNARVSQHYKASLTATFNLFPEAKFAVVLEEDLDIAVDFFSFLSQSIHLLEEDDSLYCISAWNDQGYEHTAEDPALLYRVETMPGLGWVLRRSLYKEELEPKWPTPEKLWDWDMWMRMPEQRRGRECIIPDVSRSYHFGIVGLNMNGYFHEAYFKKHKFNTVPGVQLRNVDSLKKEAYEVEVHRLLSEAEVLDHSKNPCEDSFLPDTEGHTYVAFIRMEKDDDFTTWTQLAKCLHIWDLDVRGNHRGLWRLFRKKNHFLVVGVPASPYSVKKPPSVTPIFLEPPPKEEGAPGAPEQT

His-Xpress-sOMGnT(L) showed a Km value of 1850 µM, an OMGnT activity (pmol/hr/mg protein) (pmol/hr/mg protein) of 15 and an OMGnT relative activity (%) of 100%.
